Reference: patent publication US11137400
Residue numbers refer to the chain shown, from its start.

Key:
[1] = target: T1, HA tagged hXBP1s (HA-hXBP1s), wild type, expressed in HEK293T cells
T1 chain: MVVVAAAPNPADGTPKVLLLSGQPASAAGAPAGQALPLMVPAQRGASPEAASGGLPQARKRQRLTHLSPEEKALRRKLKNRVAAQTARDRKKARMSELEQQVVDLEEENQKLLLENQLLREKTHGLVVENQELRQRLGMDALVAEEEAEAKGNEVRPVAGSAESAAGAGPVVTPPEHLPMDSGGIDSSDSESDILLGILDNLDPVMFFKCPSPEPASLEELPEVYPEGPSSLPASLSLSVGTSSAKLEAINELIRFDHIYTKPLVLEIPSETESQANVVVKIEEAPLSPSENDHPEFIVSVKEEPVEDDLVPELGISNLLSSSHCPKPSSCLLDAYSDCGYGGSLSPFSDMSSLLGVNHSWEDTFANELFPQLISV

[2] = target: T2, Affinity-purified GST-tagged wild type (WT) hXBP1s
T2 chain: T1 chain

[3] = target: T3, Affinity-purified GST-tagged hXBP1s S288A mutant
T3 chain: T1 chain with S288A

B1: FLAG-β-TrCP1, expressed in HEK293T cells (protein)
chain: MDPAEAVLQEKALKFMCSMPRSLWLGCSSLADSMPSLRCLYNPGTGALTAFQNSSEREDCNNGEPPRKIIPEKNSLRQTYNSCARLCLNQETVCLASTAMKTENCVAKTKLANGTSSMIVPKQRKLSASYEKEKELCVKYFEQWSESDQVEFVEHLISQMCHYQHGHINSYLKPMLQRDFITALPARGLDHIAENILSYLDAKSLCAAELVCKEWYRVTSDGMLWKKLIERMVRTDSLWRGLAERRGWGQYLFKNKPPDGNAPPNSFYRALYPKIIQDIETIESNWRCGRHSLQRIHCRSETSKGVYCLQYDDQKIVSGLRDNTIKIWDKNTLECKRILTGHTGSVLCLQYDERVIITGSSDSTVRVWDVNTGEMLNTLIHHCEAVLHLRFNNGMMVTCSKDRSIAVWDMASPTDITLRRVLVGHRAAVNVVDFDDKYIVSASGDRTIKVWNTSTCEFVRTLNGHKRGIACLQYRDRLVVSGSSDNTIRLWDIECGACLRVLEGHEELVRCIRFDNKRIVSGAYDGKIKVWDLVAALDPRAPAGTLCLRTLVEHSGRVFRLQFDEFQIVSSSHDDTILIWDFLNDPAAQAEPPRSPSRTYTYISR
For B1, the “ubiquitination assay (conjugation of MYC-Ub to HA-hXBP1s, anti-HA immunoprecipitation probed with anti-MYC)” value [1] was “ectopically expressed β-TrCP greatly promoted the conjugation of ubiquitin to HA-hXBP1s”.

B2: Active recombinant human JNK3 (Millipore) (protein)
chain: MSLHFLYYCSEPTLDVKIAFCQGFDKQVDVSYIAKHYNMSKSKVDNQFYSVEVGDSTFTVLKRYQNLKPIGSGAQGIVCAAYDAVLDRNVAIKKLSRPFQNQTHAKRAYRELVLMKCVNHKNIISLLNVFTPQKTLEEFQDVYLVMELMDANLCQVIQMELDHERMSYLLYQMLCGIKHLHSAGIIHRDLKPSNIVVKSDCTLKILDFGLARTAGTSFMMTPYVVTRYYRAPEVILGMGYKENVDIWSVGCIMGEMVRHKILFPGRDYIDQWNKVIEQLGTPCPEFMKKLQPTVRNYVENRPKYAGLTFPKLFPDSLFPADSEHNKLKASQARDLLSKMLVIDPAKRISVDDALQHPYINVWYDPAEVEAPPPQIYDKQLDEREHTIEEWKELIYKEVMNSEEKTKNGVVKGQPSPSGAAVNSSESLPPSSSVNDISSMSTDQTLASDTDSSLEASAGPLGCCR
With B2 the “in vitro kinase assay, phosphorylation in the presence of ^32P (autoradiography)” value (from here on “in vitro kinase assay, phosphorylation”) [2] was “JNK1, JNK2 or JNK3 was sufficient to directly phosphorylate hXBP1s” and the “in vitro kinase assay, phosphorylation” value [3] was “mutation of Ser288 to A abolished JNKs-mediated phosphorylation of hXBP1s”.

B3: Active recombinant human JNK1α1 (Millipore) (protein)
chain: MSRSKRDNNFYSVEIGDSTFTVLKRYQNLKPIGSGAQGIVCAAYDAILERNVAIKKLSRPFQNQTHAKRAYRELVLMKCVNHKNIIGLLNVFTPQKSLEEFQDVYIVMELMDANLCQVIQMELDHERMSYLLYQMLCGIKHLHSAGIIHRDLKPSNIVVKSDCTLKILDFGLARTAGTSFMMTPYVVTRYYRAPEVILGMGYKENVDLWSVGCIMGEMVCHKILFPGRDYIDQWNKVIEQLGTPCPEFMKKLQPTVRTYVENRPKYAGYSFEKLFPDVLFPADSEHNKLKASQARDLLSKMLVIDASKRISVDEALQHPYINVWYDPSEAEAPPPKIPDKQLDEREHTIEEWKELIYKEVMDLEERTKNGVIRGQPSPLAQVQQ
With B3 the “in vitro kinase assay, phosphorylation” value [2] was “JNK1, JNK2 or JNK3 was sufficient to directly phosphorylate hXBP1s” and the “in vitro kinase assay, phosphorylation” value [3] was “mutation of Ser288 to A abolished JNKs-mediated phosphorylation of hXBP1s”.
